Reference: paper PMC8391104, “Molecular mechanism of Mad1 kinetochore targeting by phosphorylated Bub1” (EMBO Reports, 2021)

Experiments:
kinetochore = conditions: cited from earlier work; for kinetochore targeting of F629A / R630A mutants, in words: ref Ji et al, 2017b
Source text: Formation of the Bub1‐Mad1 complex at kinetochores is dependent on phosphorylation of Bub1, a targeting mechanism conserved from yeast to humans (Heinrich et al, [2014]; London & Biggins, [2014a]; Silió et al, [2015]). In S. cerevisiae, phosphorylation of Bub1 at Thr453 and Thr455 by Mps1 promotes an interaction with Mad1^CTD, with pThr455 alone being sufficient for this interaction (London & Biggins, [2014a]; Ji et al, [2017b]). […] Phe629 is a buried hydrophobic residue which contacts Phe629 of the opposite subunit and therefore contributes to the hydrophobic dimerization interface of Mad1^CTD. Phe629 also contributes to the hydrophobic interface of the Bub1^CD1‐Mad1^CTD complex by stacking with Bub1 Phe475 (Fig 3B). […] However, we suspect this could be linked to disruption of the Mad1 conformation sinc ...

[1] = Aggregation of Mad1^CTD mutants; assay type: physicochemical; conditions: purified Mad1^CTD mutant
Source text: The coding region of Mad1^597–719 was cloned by USER® (NEB) into a modified pRSFDuet‐1 vector (71341‐3, Sigma‐Aldrich) with an N‐terminal double Strep His6‐tag, followed by a tobacco etch virus (TEV) protease cleavage site (Demple & Linn, [1982]; Bitinaite et al, [1992]). Mad1 mutants were generated using the QuikChange™ Lightning Site‐Directed Mutagenesis Kit (Agilent), developed by Stratagene Inc. (La Jolla, CA) (Nøhr & Kristiansen, [2003]). Mad1 constructs were transformed into Rosetta™ 2 (DE3) Singles™ Competent Cells (71400, Novagen) for expression. Expression was induced with 0.5 mM IPTG and grown overnight at 18°C. Cells were lysed in 25 mM HEPES pH 8.1, 250 mM NaCl, 2 mM DTT, 5% glycerol, 2 mM EDTA supplemented with lysozyme, and Complete™ EDTA‐free protease inhibitors (Roche). Proteins were purified over a Strep‐Tactin Superflow Plus column (QIAGEN) and cleaved with TEV protease overnight at 4°C. […]
Size exclusion chromatography coupled with multi‐angle static light scattering (SEC‐MALS) was performed using an Agilent 1200 series LC system with an online Dawn Helios ii system (Wyatt) equipped with a QELS+ module (Wyatt) and an Optilab rEX differential refractive index detector (Wyatt). […] The molecular masses were analysed with ASTRA 7.3.0.11 (Wyatt). […]

Row | Molecule | Mad1 kinetochore recruitment by Bub1 S459A, in words (kinetochore; ref Zhang et al, 2017) | aggregation, in words [1] | kinetochore targeting of F629A / R630A mutants, in words (kinetochore)
1 | S459A: Bub1 S459A mutation (protein, UniProt O43683 1-1085, looked up, variant S459A) Mitotic checkpoint …: MDTPENVLQMLEAHMQSYKGNDPLGEWERYIQWVEENFPENKEYLITLLEHLMKEFLDKKKYHNDPRFISYCLKFAEYNSDLHQFFEFLYNHGIGTLSSPLYIAWAGHLEAQGELQHASAVLQRGIQNQAEPREFLQQQYRLFQTRLTETHLPAQARTSEPLHNVQVLNQMITSKSNPGNNMACISKNQGSELSGVISSACDKESNMERRVITISKSEYSVHSSLASKVDVEQVVMYCKEKLIRGESEFSFEELRAQKYNQRRKHEQWVNEDRHYMKRKEANAFEEQLLKQKMDELHKKLHQVVETSHEDLPASQERSEVNPARMGPSVGSQQELRAPCLPVTYQQTPVNMEKNPREAPPVVPPLANAISAALVSPATSQSIAPPVPLKAQTVTDSMFAVASKDAGCVNKSTHEFKPQSGAEIKEGCETHKVANTSSFHTTPNTSLGMVQATPSKVQPAPTVHTKEALGFIMNMFQAPTLPDISDDKDEWQSLDQNEDAFEAQFQKNVRSSGAWGVNKIISSLSSAFHVFEDGNKENYGLPQPKNKPTGARTFGERSVSRLPSKPKEEVPHAEEFLDDSTVWGIRCNKTLAPSPKSPGDFTSAAQLASTPFHKLPVESVHILEDKENVVAKQCTQATLDSCEENMVVPSRDGKFSPIQEKSPKQALSSHMYSASLLRLSQPAAGGVLTCEAELGVEACRLTDTDAAIAEDPPDAIAGLQAEWMQMSSLGTVDAPNFIVGNPWDDKLIFKLLSGLSKPVSSYPNTFEWQCKLPAIKPKTEFQLGSKLVYVHHLLGEGAFAQVYEATQGDLNDAKNKQKFVLKVQKPANPWEFYIGTQLMERLKPSMQHMFMKFYSAHLFQNGSVLVGELYSYGTLLNAINLYKNTPEKVMPQGLVISFAMRMLYMIEQVHDCEIIHGDIKPDNFILGNGFLEQDDEDDLSAGLALIDLGQSIDMKLFPKGTIFTAKCETSGFQCVEMLSNKPWNYQIDYFGVAATVYCMLFGTYMKVKNEGGECKPEGLFRRLPHLDMWNEFFHVMLNIPDCHHLPSLDLLRQKLKKVFQQHYTNKIRALRNRLIVLLLECKRSRK | inactivates Bub1‐mediated Mad1 kinetochore recruitment | – | –
2 | F629A: Mad1 F629A mutant (protein, UniProt Q9Y6D9 1-718, looked up, variant F629A) Mitotic spindle assembly …: MEDLGENTMVLSTLRSLNNFISQRVEGGSGLDISTSAPGSLQMQYQQSMQLEERAEQIRSKSHLIQVEREKMQMELSHKRARVELERAASTSARNYEREVDRNQELLTRIRQLQEREAGAEEKMQEQLERNRQCQQNLDAASKRLREKEDSLAQAGETINALKGRISELQWSVMDQEMRVKRLESEKQELQEQLDLQHKKCQEANQKIQELQASQEARADHEQQIKDLEQKLSLQEQDAAIVKNMKSELVRLPRLERELKQLREESAHLREMRETNGLLQEELEGLQRKLGRQEKMQETLVGLELENERLLAKLQSWERLDQTMGLSIRTPEDLSRFVVELQQRELALKDKNSAVTSSARGLEKARQQLQEELRQVSGQLLEERKKRETHEALARRLQKRVLLLTKERDGMRAILGSYDSELTPAEYSPQLTRRMREAEDMVQKVHSHSAEMEAQLSQALEELGGQKQRADMLEMELKMLKSQSSSAEQSFLFSREEADTLRLKVEELEGERSRLEEEKRMLEAQLERRALQGDYDQSRTKVLHMSLNPTSVARQRLREDHSQLQAECERLRGLLRAMERGGTVPADLEAAAASLPSSKEVAELKKQVESAELKNQRLKEVFQTKIQEARKACYTLTGYQIDITTENQYRLTSLYAEHPGDCLIFKATSPSGSKMQLLETEFSHTVGELIEVHLRRQDSIPAFLSSLTLELFSRQTVA | – | had a propensity to aggregate | defective in kinetochore targeting
3 | R630A: Mad1 R630A mutant (protein, UniProt Q9Y6D9 1-718, looked up, variant R630A) Mitotic spindle assembly …: MEDLGENTMVLSTLRSLNNFISQRVEGGSGLDISTSAPGSLQMQYQQSMQLEERAEQIRSKSHLIQVEREKMQMELSHKRARVELERAASTSARNYEREVDRNQELLTRIRQLQEREAGAEEKMQEQLERNRQCQQNLDAASKRLREKEDSLAQAGETINALKGRISELQWSVMDQEMRVKRLESEKQELQEQLDLQHKKCQEANQKIQELQASQEARADHEQQIKDLEQKLSLQEQDAAIVKNMKSELVRLPRLERELKQLREESAHLREMRETNGLLQEELEGLQRKLGRQEKMQETLVGLELENERLLAKLQSWERLDQTMGLSIRTPEDLSRFVVELQQRELALKDKNSAVTSSARGLEKARQQLQEELRQVSGQLLEERKKRETHEALARRLQKRVLLLTKERDGMRAILGSYDSELTPAEYSPQLTRRMREAEDMVQKVHSHSAEMEAQLSQALEELGGQKQRADMLEMELKMLKSQSSSAEQSFLFSREEADTLRLKVEELEGERSRLEEEKRMLEAQLERRALQGDYDQSRTKVLHMSLNPTSVARQRLREDHSQLQAECERLRGLLRAMERGGTVPADLEAAAASLPSSKEVAELKKQVESAELKNQRLKEVFQTKIQEFAKACYTLTGYQIDITTENQYRLTSLYAEHPGDCLIFKATSPSGSKMQLLETEFSHTVGELIEVHLRRQDSIPAFLSSLTLELFSRQTVA | – | – | defective in kinetochore targeting
